Here are results for two molecules from patent publication US20090074770A1.

Assay [1] concerns the target human serum albumin (human) (UniProt P02768). In words: SPR (Biacore T100), serum albumin immobilized on CM5 chip, running buffer pH 5, 25 C. A general note: SPR reads the build-up and loss of mass on a sensor chip optically.
Assay [2] has the same target. In words: SPR (Biacore), ratio of off rates at pH 7 and pH 5.
Assay [3] has the same target. Description: SPR (Biacore T100), serum albumin immobilized on CM5 chip, running buffer pH 7, 25 C.

Broadly, the koff is the first-order rate constant of dissociation. Higher therefore signals fast dissociation.

B1: Nanobody 4A2 (VHH, from a related filing)
VHH: EVQLVESGGGLVQAGGSLRLSCAASGLSFSSYAMGWFRQAPGKEREFVAAIRRREGNSYYADSVKGRFTISRDSAKNTVYLQMNSLKPEDTALYSCAATAPHYSGSFAYAGGYDYWGQGTQVTVSS
With B1, the koff in assay [1] was found to be 0.0227 s⁻¹; in assay [3] it was 0.00642 s⁻¹. Moreover, the Ratio pH 7/pH 5 in assay [2] stood at 3.54.

B2: Nanobody 4D3 (VHH, from a related filing)
VHH: EVQLVKSGGGLVQPGGSLRLSCAASGFTFSHYQMSWVRQAPGKDVEWVSSISMLGGGTTYADSVKGRFTISRDNAKSTLVLQMNNLKVEDTAVYYCARGFSGNYYRADLGQGTQVTVSS
With B2, the koff in assay [1] worked out at 0.0137 s⁻¹; in assay [3] it was 0.00565 s⁻¹. Also, in assay [2], the Ratio pH 7/pH 5 was determined as 2.42.
